Experimental data as given in US20220324969A1 (MYTHIC THERAPEUTICS, published 2022).

B1: MYT2628 (antibody, V domains shown)
VH: QVQLQQPGAEVVKPGASVKMSCKASGYTFTSYYIHWIKQTPGQGLEWVGVIYPGNDDISYNQKFQGKATLTADKSSTTAYMQLSSLTSEDSAVYYCAREVRLRYFDVWGQGTTVTVSS
VL: EIVLTQSPGSLAVSPGERVTMSCKSSQSVFFSSSHKNYLAWYQQIPGQSPRLLIYWASTRESGVPDRFTGSGSGTDFTLTISSVQPEDLAIYYCHQYLSSRTFGQGTKLEIK
notes: IgG; IMGN779 VL variant #12 (Q35H)
B2: MYT2636 (antibody, V domains shown)
VH: QVQLQQPGAEVVKPGASVKMSCKASGYTFTSYYIHWIKQTPGQGLEWVGVIYPGNDDISYNQKFQGKATLTADKSSTTAYMQLSSLTSEDSAVYYCAREVRLRYFDVWGQGTTVTVSS
VL: EIVLTQSPGSLAVSPGERVTMSCKSSQSVFFSSSQKNYLAWYQQIPGQSPRLLIYWAHTRESGVPDRFTGSGSGTDFTLTISSVQPEDLAIYYCHQYLSSRTFGQGTKLEIK
notes: IgG; IMGN779 VL variant #20 (S58H)
B3: MYT2647 (antibody, V domains shown)
VH: QVQLQQPGAEVVKPGASVKMSCKASGYTFTSYYIHWIKQTPGQGLEWVGVIYPGNDDISYNQKFQGKATLTADKSSTTAYMQLSSLTSEDSAVYYCAREVRLRYFDVWGQGTTVTVSS
VL: EIVLTQSPGSLAVSPGERVTMSCKSSQSVFFSSSQKNYLAWYQQIPGQSPRLLIYWASTRESGVPDRFTGSGSGTDFTLTISSVQPEDLAIYYCHQYLSSHTFGQGTKLEIK
notes: IgG; IMGN779 VL variant #31 (R101H)
B4: MYT2632 (antibody, V domains shown)
VH: QVQLQQPGAEVVKPGASVKMSCKASGYTFTSYYIHWIKQTPGQGLEWVGVIYPGNDDISYNQKFQGKATLTADKSSTTAYMQLSSLTSEDSAVYYCAREVRLRYFDVWGQGTTVTVSS
VL: EIVLTQSPGSLAVSPGERVTMSCKSSQSVFFSSSQKNYHAWYQQIPGQSPRLLIYWASTRESGVPDRFTGSGSGTDFTLTISSVQPEDLAIYYCHQYLSSRTFGQGTKLEIK
notes: IgG; IMGN779 VL variant #16 (L39H)
B5: MYT2638 (antibody, V domains shown)
VH: QVQLQQPGAEVVKPGASVKMSCKASGYTFTSYYIHWIKQTPGQGLEWVGVIYPGNDDISYNQKFQGKATLTADKSSTTAYMQLSSLTSEDSAVYYCAREVRLRYFDVWGQGTTVTVSS
VL: EIVLTQSPGSLAVSPGERVTMSCKSSQSVFFSSSQKNYLAWYQQIPGQSPRLLIYWASTHESGVPDRFTGSGSGTDFTLTISSVQPEDLAIYYCHQYLSSRTFGQGTKLEIK
notes: IgG; IMGN779 VL variant #22 (R60H)
B6: MYT2631 (antibody, V domains shown)
VH: QVQLQQPGAEVVKPGASVKMSCKASGYTFTSYYIHWIKQTPGQGLEWVGVIYPGNDDISYNQKFQGKATLTADKSSTTAYMQLSSLTSEDSAVYYCAREVRLRYFDVWGQGTTVTVSS
VL: EIVLTQSPGSLAVSPGERVTMSCKSSQSVFFSSSQKNHLAWYQQIPGQSPRLLIYWASTRESGVPDRFTGSGSGTDFTLTISSVQPEDLAIYYCHQYLSSRTFGQGTKLEIK
notes: IgG; IMGN779 VL variant #15 (Y38H)
B7: MYT2644 (antibody, V domains shown)
VH: QVQLQQPGAEVVKPGASVKMSCKASGYTFTSYYIHWIKQTPGQGLEWVGVIYPGNDDISYNQKFQGKATLTADKSSTTAYMQLSSLTSEDSAVYYCAREVRLRYFDVWGQGTTVTVSS
VL: EIVLTQSPGSLAVSPGERVTMSCKSSQSVFFSSSQKNYLAWYQQIPGQSPRLLIYWASTRESGVPDRFTGSGSGTDFTLTISSVQPEDLAIYYCHQYHSSRTFGQGTKLEIK
notes: IgG; IMGN779 VL variant #28 (L98H)
B8: MYT2646 (antibody, V domains shown)
VH: QVQLQQPGAEVVKPGASVKMSCKASGYTFTSYYIHWIKQTPGQGLEWVGVIYPGNDDISYNQKFQGKATLTADKSSTTAYMQLSSLTSEDSAVYYCAREVRLRYFDVWGQGTTVTVSS
VL: EIVLTQSPGSLAVSPGERVTMSCKSSQSVFFSSSQKNYLAWYQQIPGQSPRLLIYWASTRESGVPDRFTGSGSGTDFTLTISSVQPEDLAIYYCHQYLSHRTFGQGTKLEIK
notes: IgG; IMGN779 VL variant #30 (S100H)
B9: MYT2640 (antibody, V domains shown)
VH: QVQLQQPGAEVVKPGASVKMSCKASGYTFTSYYIHWIKQTPGQGLEWVGVIYPGNDDISYNQKFQGKATLTADKSSTTAYMQLSSLTSEDSAVYYCAREVRLRYFDVWGQGTTVTVSS
VL: EIVLTQSPGSLAVSPGERVTMSCKSSQSVFFSSSQKNYLAWYQQIPGQSPRLLIYWASTREHGVPDRFTGSGSGTDFTLTISSVQPEDLAIYYCHQYLSSRTFGQGTKLEIK
notes: IgG; IMGN779 VL variant #24 (S62H)
B10: MYT2637 (antibody, V domains shown)
VH: QVQLQQPGAEVVKPGASVKMSCKASGYTFTSYYIHWIKQTPGQGLEWVGVIYPGNDDISYNQKFQGKATLTADKSSTTAYMQLSSLTSEDSAVYYCAREVRLRYFDVWGQGTTVTVSS
VL: EIVLTQSPGSLAVSPGERVTMSCKSSQSVFFSSSQKNYLAWYQQIPGQSPRLLIYWASHRESGVPDRFTGSGSGTDFTLTISSVQPEDLAIYYCHQYLSSRTFGQGTKLEIK
notes: IgG; IMGN779 VL variant #21 (T59H)
B11: MYT2643 (antibody, V domains shown)
VH: QVQLQQPGAEVVKPGASVKMSCKASGYTFTSYYIHWIKQTPGQGLEWVGVIYPGNDDISYNQKFQGKATLTADKSSTTAYMQLSSLTSEDSAVYYCAREVRLRYFDVWGQGTTVTVSS
VL: EIVLTQSPGSLAVSPGERVTMSCKSSQSVFFSSSQKNYLAWYQQIPGQSPRLLIYWASTRESGVPDRFTGSGSGTDFTLTISSVQPEDLAIYYCHQHLSSRTFGQGTKLEIK
notes: IgG; IMGN779 VL variant #27 (Y97H)
B12: MYT2648 (antibody, V domains shown)
VH: QVQLQQPGAEVVKPGASVKMSCKASGYTFTSYYIHWIKQTPGQGLEWVGVIYPGNDDISYNQKFQGKATLTADKSSTTAYMQLSSLTSEDSAVYYCAREVRLRYFDVWGQGTTVTVSS
VL: EIVLTQSPGSLAVSPGERVTMSCKSSQSVFFSSSQKNYLAWYQQIPGQSPRLLIYWASTRESGVPDRFTGSGSGTDFTLTISSVQPEDLAIYYCHQYLSSRHFGQGTKLEIK
notes: IgG; IMGN779 VL variant #32 (T102H)
B13: MYT2642 (antibody, V domains shown)
VH: QVQLQQPGAEVVKPGASVKMSCKASGYTFTSYYIHWIKQTPGQGLEWVGVIYPGNDDISYNQKFQGKATLTADKSSTTAYMQLSSLTSEDSAVYYCAREVRLRYFDVWGQGTTVTVSS
VL: EIVLTQSPGSLAVSPGERVTMSCKSSQSVFFSSSQKNYLAWYQQIPGQSPRLLIYWASTRESGVPDRFTGSGSGTDFTLTISSVQPEDLAIYYCHHYLSSRTFGQGTKLEIK
notes: IgG; IMGN779 VL variant #26 (Q96H)
B14: MYT2645 (antibody, V domains shown)
VH: QVQLQQPGAEVVKPGASVKMSCKASGYTFTSYYIHWIKQTPGQGLEWVGVIYPGNDDISYNQKFQGKATLTADKSSTTAYMQLSSLTSEDSAVYYCAREVRLRYFDVWGQGTTVTVSS
VL: EIVLTQSPGSLAVSPGERVTMSCKSSQSVFFSSSQKNYLAWYQQIPGQSPRLLIYWASTRESGVPDRFTGSGSGTDFTLTISSVQPEDLAIYYCHQYLHSRTFGQGTKLEIK
notes: IgG; IMGN779 VL variant #29 (S99H)
B15: MYT2629 (antibody, V domains shown)
VH: QVQLQQPGAEVVKPGASVKMSCKASGYTFTSYYIHWIKQTPGQGLEWVGVIYPGNDDISYNQKFQGKATLTADKSSTTAYMQLSSLTSEDSAVYYCAREVRLRYFDVWGQGTTVTVSS
VL: EIVLTQSPGSLAVSPGERVTMSCKSSQSVFFSSSQHNYLAWYQQIPGQSPRLLIYWASTRESGVPDRFTGSGSGTDFTLTISSVQPEDLAIYYCHQYLSSRTFGQGTKLEIK
notes: IgG; IMGN779 VL variant #13 (K36H)
B16: MYT2635 (antibody, V domains shown)
VH: QVQLQQPGAEVVKPGASVKMSCKASGYTFTSYYIHWIKQTPGQGLEWVGVIYPGNDDISYNQKFQGKATLTADKSSTTAYMQLSSLTSEDSAVYYCAREVRLRYFDVWGQGTTVTVSS
VL: EIVLTQSPGSLAVSPGERVTMSCKSSQSVFFSSSQKNYLAWYQQIPGQSPRLLIYWHSTRESGVPDRFTGSGSGTDFTLTISSVQPEDLAIYYCHQYLSSRTFGQGTKLEIK
notes: IgG; IMGN779 VL variant #19 (A57H)
B17: MYT2639 (antibody, V domains shown)
VH: QVQLQQPGAEVVKPGASVKMSCKASGYTFTSYYIHWIKQTPGQGLEWVGVIYPGNDDISYNQKFQGKATLTADKSSTTAYMQLSSLTSEDSAVYYCAREVRLRYFDVWGQGTTVTVSS
VL: EIVLTQSPGSLAVSPGERVTMSCKSSQSVFFSSSQKNYLAWYQQIPGQSPRLLIYWASTRHSGVPDRFTGSGSGTDFTLTISSVQPEDLAIYYCHQYLSSRTFGQGTKLEIK
notes: IgG; IMGN779 VL variant #23 (E61H)
B18: MYT2641 (antibody, V domains shown)
VH: QVQLQQPGAEVVKPGASVKMSCKASGYTFTSYYIHWIKQTPGQGLEWVGVIYPGNDDISYNQKFQGKATLTADKSSTTAYMQLSSLTSEDSAVYYCAREVRLRYFDVWGQGTTVTVSS
VL: EIVLTQSPGSLAVSPGERVTMSCKSSQSVFFSSSQKNYLAWYQQIPGQSPRLLIYWASTRESGVPDRFTGSGSGTDFTLTISSVQPEDLAIYYCAQYLSSRTFGQGTKLEIK
notes: IgG; IMGN779 VL variant #25 (H95A)
B19: MYT2634 (antibody, V domains shown)
VH: QVQLQQPGAEVVKPGASVKMSCKASGYTFTSYYIHWIKQTPGQGLEWVGVIYPGNDDISYNQKFQGKATLTADKSSTTAYMQLSSLTSEDSAVYYCAREVRLRYFDVWGQGTTVTVSS
VL: EIVLTQSPGSLAVSPGERVTMSCKSSQSVFFSSSQKNYLAWYQQIPGQSPRLLIYHASTRESGVPDRFTGSGSGTDFTLTISSVQPEDLAIYYCHQYLSSRTFGQGTKLEIK
notes: IgG; IMGN779 VL variant #18 (W56H)
B20: MYT2630 (antibody, V domains shown)
VH: QVQLQQPGAEVVKPGASVKMSCKASGYTFTSYYIHWIKQTPGQGLEWVGVIYPGNDDISYNQKFQGKATLTADKSSTTAYMQLSSLTSEDSAVYYCAREVRLRYFDVWGQGTTVTVSS
VL: EIVLTQSPGSLAVSPGERVTMSCKSSQSVFFSSSQKHYLAWYQQIPGQSPRLLIYWASTRESGVPDRFTGSGSGTDFTLTISSVQPEDLAIYYCHQYLSSRTFGQGTKLEIK
notes: IgG; IMGN779 VL variant #14 (N37H)
B21: MYT1335 (antibody, V domains shown)
VH: QVQLVQSGAEVKKPGASVKVSCKASHYTFTNYDINWVRQAPGQGLEWIGWIYPGDGSTKYNEKFKAKATLTADTSTSTAYMELRSLRSDDTAVYYCASGYEDAMDYWGQGTTVTVSS
VL: DIQMTQSPSSLSASVGDRVTINCKASQDINSYLSWFQQKPGKAPKTLIYRANRLVDGVPSRFSGSGSGQDYTLTISSLQPEDFATYYCLQYDEFPLTFGGGTKVEIK
notes: IgG; vadastuximab VH variant #1 (G26H)

The binders below were run against CD33 (Sino Biological, Cat #12238-H08H) (UniProt P20138 18-259) (assay: BLI, IgG captured on anti-human Fc sensor, 50 nM CD33, pH 7.4 vs pH 5.4).
CD33 (Sino Biological, Cat #12238-H08H), sequence (P20138 18-259 limits assumed): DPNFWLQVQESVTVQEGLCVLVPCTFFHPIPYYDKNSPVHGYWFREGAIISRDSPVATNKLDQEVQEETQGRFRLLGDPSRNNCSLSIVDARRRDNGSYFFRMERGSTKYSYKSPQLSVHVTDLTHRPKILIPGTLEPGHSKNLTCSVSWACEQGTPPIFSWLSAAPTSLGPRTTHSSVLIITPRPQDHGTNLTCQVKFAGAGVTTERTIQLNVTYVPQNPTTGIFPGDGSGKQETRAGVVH
B1: binds. B2: binds. B3: binds. B4: binds. B5: binds. B6: binds. B7: binds. B8: binds. B9: binds. B10: binds. B11: binds. B12: binds. B13: binds. B14: binds. B15: binds. B16: binds. B17: binds. B18: binds. B19: binds. B20: binds. B21: binds.
